According to IntAct's records for PubMed 19448033:

Assays:
[1] = biological target: cipko_arath CIPK24 (UniProt Q9LDI3)
[2] = biological target: cipko_arath CIPK24 (UniProt Q9LDI3); remark: listed apart in the source

Sequence of cipko_arath CIPK24 (Q9LDI3 whole entry): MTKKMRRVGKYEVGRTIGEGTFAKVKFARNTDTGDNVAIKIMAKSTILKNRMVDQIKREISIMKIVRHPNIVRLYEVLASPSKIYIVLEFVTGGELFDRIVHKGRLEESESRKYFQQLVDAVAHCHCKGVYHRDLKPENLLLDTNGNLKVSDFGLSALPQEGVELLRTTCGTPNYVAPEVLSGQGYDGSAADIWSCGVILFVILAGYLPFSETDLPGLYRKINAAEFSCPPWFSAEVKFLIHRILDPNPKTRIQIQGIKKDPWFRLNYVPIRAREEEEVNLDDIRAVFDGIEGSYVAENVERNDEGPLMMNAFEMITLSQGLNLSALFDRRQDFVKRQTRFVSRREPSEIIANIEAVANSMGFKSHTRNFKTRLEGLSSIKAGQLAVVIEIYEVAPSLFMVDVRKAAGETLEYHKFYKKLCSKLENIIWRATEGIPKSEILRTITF
Sequence of Calcineurin B-like protein 10 (Arabidopsis thaliana (Mouse-ear cress)), Q7FRS8-2 S237A (Q7FRS8 other isoform, or with tags, fused parts or gaps S237A): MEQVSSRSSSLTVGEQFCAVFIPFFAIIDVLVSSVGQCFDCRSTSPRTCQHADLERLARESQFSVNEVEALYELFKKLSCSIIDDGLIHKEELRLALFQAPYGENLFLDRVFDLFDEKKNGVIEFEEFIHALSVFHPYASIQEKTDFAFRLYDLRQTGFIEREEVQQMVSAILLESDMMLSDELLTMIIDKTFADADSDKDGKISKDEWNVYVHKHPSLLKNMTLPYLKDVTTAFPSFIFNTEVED
Sequence of Calcineurin B-like protein 10 (Arabidopsis thaliana (Mouse-ear cress)), Q7FRS8-2 S237D (Q7FRS8 other isoform, or with tags, fused parts or gaps S237D): as the sequence (Q7FRS8 other isoform, or with tags, fused parts or gaps S237A) above

Substance | effect of a mutation on the interaction [1] | effect of a mutation on the interaction [2]
Calcineurin B-like protein 10 (Arabidopsis thaliana (Mouse-ear cress)), Q7FRS8-2 S237A | disrupting interaction | decreasing interaction
Calcineurin B-like protein 10 (Arabidopsis thaliana (Mouse-ear cress)), Q7FRS8-2 S237D |  | increasing interaction
